The values below come from publication PMC9588774 (Cell Death & Disease, 2022).

Series [1] concerns the molecule itself. The series is described as follows: SEC; supernatants of sCD95-secreting HEK/293T cells on Superdex 200 Prep Grade (XK 16/70) in PBS, 1 mL/min, 1 mL fractions; CD95 in each fraction dosed by ELISA; native molecular markers. For orientation: SEC sorts molecules by how far they enter the pores of the column.
The target of series [2] is T1, CD95L (FasL, Peprotech) (UniProt P48023 130-281).
T1 chain: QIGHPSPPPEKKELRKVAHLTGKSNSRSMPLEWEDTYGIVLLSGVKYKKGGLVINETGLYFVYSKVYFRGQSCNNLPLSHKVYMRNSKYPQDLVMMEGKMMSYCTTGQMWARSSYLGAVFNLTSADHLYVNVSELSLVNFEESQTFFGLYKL
Put plainly: SPR.

For series [3], the target named is soluble full-length extracellular domain of CD95 (sCD95). The series is described as follows: SEC; supernatants of sCD95-secreting HEK/293T cells on Superdex 200 Prep Grade (XK 16/70) in PBS, 1 mL/min, 1 mL fractions; CD95 in each fraction dosed by ELISA; native molecular markers.
For series [4], the target named is CD95L (FasL, Peprotech) (UniProt P48023). Put plainly: SPR; Biacore T200, 25 °C; CM5 chip coated with 140 RU of FasL (Peprotech); sCD95 or sCD95-Δ58 injected in triplicate at 25 µl/min in 10 mM Na2HPO4, 150 mM NaCl, 3 mM EDTA, 0.05% Tween-20, pH 7.4; Langmuir 1:1 fit, KD = kd/ka.

B1: soluble extracellular domain of CD95 with K33G (sCD95-K33G) (domain or fragment, UniProt P25445 17-173, looked up)
chain: RLSSKSVNAQVTDINSGGLELRKTVTTVETQNLEGLHHDGQFCHKPCPPGERKARDCTVNGDEPDCVPCQEGKEYTDKAHFSSKCRRCRLCDEGHGLEVEINCTRTQNTKCRCKPNFFCNSTVCEHCDPCTKCEHGIIKECTLTSNTKCKEEGSRSN
notes: CD95 (Fas), a.a; 17-173 of the 335-residue precursor, AAG codon (K) replaced by GGG (G); pcDNA3.1(+); also called soluble K33G CD95 mutant; source: HEK/293T, transfected (calcium/phosphate), secreted into serum-deprived Opti-MEM; supernatant ultracentrifuged
As to B1, the stoichiometry N (in general, a count of units in the complex or per binding partner) in series [1] is 3.

B2: soluble full-length extracellular domain of CD95 (sCD95) (domain or fragment)
chain: RLSSKSVNAQVTDINSKGLELRKTVTTVETQNLEGLHHDGQFCHKPCPPGERKARDCTVNGDEPDCVPCQEGKEYTDKAHFSSKCRRCRLCDEGHGLEVEINCTRTQNTKCRCKPNFFCNSTVCEHCDPCTKCEHGIIKECTLTSNTKCKEEGSRSNL
modifications: N-glycosylated
On to B2, for which the koff (in general, the rate constant with which the complex falls apart) with CD95L (FasL, Peprotech) [2] came to 0.0011 s⁻¹. In series [3], this molecule displayed a percent of homotrimer of 27%, a percent of monomer of 20%, a percent of the protein in the dimer fractions of 44% and a stoichiometry N of 2. Moreover, the Kd (as a rule, the concentration at which binding is half-saturated) in the series with CD95L (FasL, Peprotech) [4] amounted to 2 nM.

B3: soluble Δ36-truncated extracellular domain of CD95 (sCD95-Δ36) (domain or fragment, UniProt P25445 37-173, looked up)
chain: LRKTVTTVETQNLEGLHHDGQFCHKPCPPGERKARDCTVNGDEPDCVPCQEGKEYTDKAHFSSKCRRCRLCDEGHGLEVEINCTRTQNTKCRCKPNFFCNSTVCEHCDPCTKCEHGIIKECTLTSNTKCKEEGSRSN
notes: CD95 (Fas), a.a; 37-173 of the 335-residue precursor; pcDNA3.1(+); also called Δ36-CD95; MMP7-cleaved form; source: HEK/293T, transfected (calcium/phosphate), secreted into serum-deprived Opti-MEM; supernatant ultracentrifuged
B3: the “stoichiometry N” value in series [1] was determined as 2.

B4: soluble Δ58-truncated extracellular domain of CD95 (sCD95-Δ58) (domain or fragment)
chain: CHKPCPPGERKARDCTVNGDEPDCVPCQEGKEYTDKAHFSSKCRRCRLCDEGHGLEVEINCTRTQNTKCRCKPNFFCNSTVCEHCDPCTKCEHGIIKECTLTSNTKCKEEGSRSNL
For the molecule B4, in the series with CD95L (FasL, Peprotech) [2], the off-rate constant (koff) was found to be 0.0011 s⁻¹. For the same molecule, in the series with CD95L (FasL, Peprotech) [4], the equilibrium dissociation constant (Kd) is 2.5 nM.
